Legend:
SARS-CoV-2 WT S-ECD蛋白 = SARS-CoV-2 WT S-ECD蛋白 (SARS-CoV-2, UniProt P0DTC2 14-1213)
Omicron株刺突蛋白(S蛋白)，在假病毒表面 = Omicron株刺突蛋白(S蛋白)，在假病毒表面 (SARS-CoV-2 Omicron株 (B.1.1.529)); assay: cell-based or functional assay
Alpha株刺突蛋白(S蛋白)，在假病毒表面 = Alpha株刺突蛋白(S蛋白)，在假病毒表面 (SARS-CoV-2 Alpha株 (B.1.1.7)); assay: cell-based or functional assay
[1] = biological target: Delta株刺突蛋白(S蛋白)，在假病毒/真病毒表面 (SARS-CoV-2 Delta株 (B.1.617.2)); assay: cell-based or functional assay
[2] = biological target: Beta株刺突蛋白(S蛋白)，在假病毒/真病毒表面 (SARS-CoV-2 Beta株 (B.1.351)); assay: cell-based or functional assay
Gamma株刺突蛋白(S蛋白)，在假病毒表面 = Gamma株刺突蛋白(S蛋白)，在假病毒表面 (SARS-CoV-2 Gamma株 (P.1)); assay: cell-based or functional assay

B1: 抗SARS-CoV-2全人源单克隆抗体ZWC12 (antibody, V domains shown)
VH: EVQLVESGGALVQPGGSLRLSCAASGFTFANYAMSWVRQAPGKGLEWVSSMTGSSIDSYYADSVKGRFTISRDNSRNTLYLQMNSLRAEDTAVYYCAKGELLWFGDLLHNWFDPWGRGTLVTVSS
VL: DIVMTQSPATLSVSPGERATLSCRASQSVSTNLAWYQQKPGQAPRLLIHGASTRATGLPARFSGSGSGTEFTLTISSLQSEDFAVYFCQQYDSWPGTFGPGTKVDIKR
Kd (SARS-CoV-2 WT S-ECD蛋白): 1.75 nM
假病毒中和 EC50 (luciferase, HEK293T) (Omicron株刺突蛋白(S蛋白)，在假病毒表面): 0.093 µg/mL
假病毒中和 EC50 (luciferase, HEK293T) (Alpha株刺突蛋白(S蛋白)，在假病毒表面): 0.124 µg/mL
假病毒中和 EC50 (luciferase, HEK293T) [1]: 0.411 µg/mL
真病毒中和 EC50 (Vero E6, crystal violet) [1]: 7.97 µg/mL
假病毒中和 EC50 (luciferase, HEK293T) [2]: 0.162 µg/mL
真病毒中和 EC50 (Vero E6, crystal violet) [2]: 721 µg/mL
假病毒中和 EC50 (luciferase, HEK293T) (Gamma株刺突蛋白(S蛋白)，在假病毒表面): 0.136 µg/mL

Source: patent CN114044821A (INST MILITARY MEDICINE ACADEMY MILITARY SCIENCES PLA, dated 2022)
